B1: POU domain, class 4, transcription factor 2, residues 256 to 327; numbered along this chain, Q12837 (parent)
chain: RDLEAFAERFKQRRIKLGVTQADVGSALANLKIPGVGSLSQSTICRFESLTLSHNNMIALKPILQAWLEEAE

Variants of: B1
Experiment: abundance fitness (aPCA) (normalised: wild type 0, dead -1); higher = more abundant; growth selection in yeast, the domain comes from the species named
Settings: Homo sapiens

Abundance fitness: each site, then its substitutions
R14: P -0.985 | L -0.847 | V -0.998 | Y -0.594 | S -0.904 | Q -0.819 | K -0.632 | M -0.725 | H -0.859 | C -0.854
Q21: A -0.028 | C -0.024 | E -0.258 | T 0.011 | N -0.346 | I 0.151 | L 0.002 | Y -0.194 | W -0.238 | R -0.111 | H 0.184 | G -0.241 | P -0.175 | M -0.39 | V 0.002 | K -0.361 | F -0.426
K32: S -0.072 | T -0.112 | D 0.054 | P -0.33 | H -0.178 | R -0.084 | Y 0.061 | G -0.24 | M -0.215 | V -0.021 | W -0.188 | L -0.279 | C -0.192 | E 0.052 | F -0.372 | N 0.189 | Q -0.012 | I -0.181
G25: P -0.487 | M -0.242 | R -0.283 | D -0.501 | Q -0.207 | W -0.116 | F -0.494 | I -0.145 | E 0.127 | K -0.264 | T 0.117 | N -0.593 | Y -0.404 | L -0.031 | A -0.006 | C 0.131 | S 0.166
N30: A -0.116 | S -0.059 | P -0.146 | R -0.189 | G -0.103 | Y -0.183 | T -0.112 | H -0.087 | E -0.456 | I -0.766 | V -0.432 | K 0.054 | C -0.094 | M -0.5 | Q -0.059 | L -0.244 | W -0.315
I33: T -0.311 | C -0.395 | W -0.414 | L -0.081 | H -0.438 | F -0.211 | A -0.295 | N -0.434 | P -0.357 | G -0.116 | Q -0.426 | M -0.162 | E -0.205 | Y -0.126 | S -0.274 | V 0.008 | K -0.421 | D -0.225
P34: C -0.679 | A -0.244 | D -0.221 | E -0.036
V24: Y -0.975 | K -0.844 | E -0.88 | Q -1.02 | W -0.781 | R -0.76 | S -0.8 | P -0.928 | M -0.191 | G -1.03 | T -0.948 | I -0.145 | F -0.642 | N -0.821 | C -0.1 | A -0.067
S26: H -0.059 | M -0.057 | Y -0.05 | L 0.061 | T -0.08 | V -0.234 | P -0.694 | A 0.176 | F -0.032 | K -0.176 | N 0.239 | D -0.076 | G -0.164 | I -0.275 | E 0.048 | Q -0.07 | W 0.008 | R 0.062
D23: N -0.119 | Y -0.299 | H -0.127 | A -0.172 | P -0.755 | C -0.678 | M -0.189 | Q 0.047 | K 0.09 | V -0.403 | E -0.057 | L -0.252 | S -0.068 | W -0.495 | R -0.243
A29: I -0.323 | C -0.136 | D 0.03 | E -0.239 | W -0.799 | M -0.046 | V -0.237 | L -0.158 | N -0.116 | H -0.198 | Q 0.108 | G -0.009 | T -0.107 | S 0.019 | Y -0.165 | F -0.544 | K 0.042

Reference: the Human Domainome abundance scans (Beltran et al. 2025)
